The source of these data is patent publication US20230310573A1 (Janssen / Centocor, published 2023).

The target of assay [1] is T1, Recombinant soluble RSV F stabilized in the pre-fusion conformation (soluble, processed, stabilized RSV F … (respiratory syncytial virus (RSV), UniProt P03420 26-513)).
T1 construct: also called RSV pre-fusion F protein; RSV prefusion F
As to the kind of experiment: sandwich ELISA: antibody coated, preF titrated, CR9506-HRP detection; preF + compound III, trimer:compound 1:10.

Assay [2] addresses T1, Recombinant soluble RSV F stabilized in …. As to the kind of experiment: sandwich ELISA: antibody coated, preF titrated, CR9506-HRP detection; preF + compound III, trimer:compound 1:50. Background: In an ELISA, binding on a coated surface is turned into a signal by an enzyme label.
Assay [3] shares this target. As to the kind of experiment: sandwich ELISA: antibody coated, preF titrated, CR9506-HRP detection; preF + DMSO.
The target is the same in assay [4]. Description: sandwich ELISA: antibody coated, preF titrated, CR9506-HRP detection; preF + compound VII, trimer:compound 1:10.
Assay [5] has the same target. As to the kind of experiment: sandwich ELISA: antibody coated, preF titrated, CR9506-HRP detection; preF + compound VII, trimer:compound 1:50.
Assay [6] shares this target. Description: sandwich ELISA: antibody coated, preF titrated, CR9506-HRP detection; preF + compound VII, trimer:compound 1:3.
Assay [7] shares this target. Description: sandwich ELISA: antibody coated, preF titrated, CR9506-HRP detection; preF + compound III, trimer:compound 1:3.
The target is the same in assay [8]. Description: sandwich ELISA: antibody coated, preF titrated, CR9506-HRP detection; preF alone.

B1: CR9506 (antibody, human IgG1, kappa, V domains shown)
VH: EVQLVQSGAEVKKPGSSVKVSCKASGGTFSRSLITWVRQAPGQGLEWMGEISLVFGSAKNAQKFQGRVTITADESTSTAHMEMISLKHEDTAVYYCAAHQYGSGTHNNFWDESELRFDLWGQGTLVTVSS
VL: DIVMTQSPSSLSASVGDRVTIACRASQSIGTYLNWYQQKPGKAPKLLIYAASSLQSGVPSRFSGSGSGTHFTLAISSLQAEDFATYSCQQSYTIPYTFGQGTKLEIKR
notes: An HRP-labelled CR9506 was also the detection antibody in the ELISA; also called CR9506 (pan)
As to B1, the “EC50 (half-maximal binding concentration)” value in assay [1] came out at 0.29 nM; in assay [5], 0.31 nM; in assay [7] it was 0.3 nM. Further, the concentration giving a half-maximal response (EC50) in assay [2] worked out at 0.31 nM; in assay [3], 0.29 nM; in assay [4], 0.29 nM; in assay [6], 0.32 nM. Moreover, the IC50 in assay [8] was determined as 0.28 nM.

One may read the EC50 as the concentration needed to bring the measured effect to its halfway point. In general, IC50 refers to the concentration at which inhibition is half-maximal.
